Common to all, as to assay: cell-based or functional assay
Test [1] has as its target AA-SR-107 (SR-107), IL10RB ECD-IL10RB TM-CD3z ICD.
Test [2] addresses AA-SR-122 (SR-122), IL10RB ECD-CD28 TM-CD3z ICD.
The target in test [3] is AA-SR-120 (SR-120), Fas ECD-CD28 TM-CD3z ICD.
In test [4] the target is AA-SR-105 (SR-105), Fas ECD-Fas TM-CD3z ICD.
Test [5] addresses AA-SR-127 (SR-127), TACTILE ECD-CD28 TM-CD3z ICD.
For test [6], the target named is AA-SR-112 (SR-112), TACTILE ECD-TACTILE TM-CD3z ICD.
Sequence of AA-SR-112 (SR-112), TACTILE ECD-TACTILE TM-CD3z ICD (chain, as listed by the source limits assumed, form in doubt): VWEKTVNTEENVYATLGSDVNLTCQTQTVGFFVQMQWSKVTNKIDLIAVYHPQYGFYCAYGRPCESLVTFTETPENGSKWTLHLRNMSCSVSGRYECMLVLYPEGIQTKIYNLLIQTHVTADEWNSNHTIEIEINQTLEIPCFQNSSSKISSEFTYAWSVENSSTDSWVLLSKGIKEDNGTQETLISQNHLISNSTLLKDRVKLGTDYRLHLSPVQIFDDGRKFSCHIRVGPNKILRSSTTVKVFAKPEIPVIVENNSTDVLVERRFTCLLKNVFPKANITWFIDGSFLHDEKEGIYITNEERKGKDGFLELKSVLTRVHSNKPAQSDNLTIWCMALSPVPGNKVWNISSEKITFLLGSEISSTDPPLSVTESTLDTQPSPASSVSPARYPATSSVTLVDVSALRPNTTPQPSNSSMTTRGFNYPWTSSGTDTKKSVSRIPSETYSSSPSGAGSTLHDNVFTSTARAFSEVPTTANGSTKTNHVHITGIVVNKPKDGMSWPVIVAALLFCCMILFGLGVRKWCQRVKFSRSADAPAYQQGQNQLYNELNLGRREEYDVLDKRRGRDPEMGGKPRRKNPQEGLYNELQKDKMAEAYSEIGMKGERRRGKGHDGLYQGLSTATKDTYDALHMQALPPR
For test [7], the target named is AA-SR-126 (SR-126), PD1 ECD-CD28 TM-CD3z ICD.
Sequence of AA-SR-126 (SR-126), PD1 ECD-CD28 TM-CD3z ICD (chain, as listed by the source limits assumed, form in doubt): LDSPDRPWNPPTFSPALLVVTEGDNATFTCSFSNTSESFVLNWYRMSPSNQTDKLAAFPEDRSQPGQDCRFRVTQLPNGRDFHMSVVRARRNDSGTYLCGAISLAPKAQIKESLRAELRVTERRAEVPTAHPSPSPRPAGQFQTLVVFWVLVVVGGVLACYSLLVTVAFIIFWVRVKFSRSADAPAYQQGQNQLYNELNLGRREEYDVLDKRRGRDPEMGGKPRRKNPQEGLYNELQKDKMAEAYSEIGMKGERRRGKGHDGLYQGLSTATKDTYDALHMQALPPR
Test [8] addresses AA-SR-111 (SR-111), PD1 ECD-PD1 TM-CD3z ICD.
For test [9], the target named is AA-SR-124 (SR-124), GP130 ECD-CD28 TM-CD3z ICD.
Sequence of AA-SR-124 (SR-124), GP130 ECD-CD28 TM-CD3z ICD (chain, as listed by the source limits assumed, form in doubt): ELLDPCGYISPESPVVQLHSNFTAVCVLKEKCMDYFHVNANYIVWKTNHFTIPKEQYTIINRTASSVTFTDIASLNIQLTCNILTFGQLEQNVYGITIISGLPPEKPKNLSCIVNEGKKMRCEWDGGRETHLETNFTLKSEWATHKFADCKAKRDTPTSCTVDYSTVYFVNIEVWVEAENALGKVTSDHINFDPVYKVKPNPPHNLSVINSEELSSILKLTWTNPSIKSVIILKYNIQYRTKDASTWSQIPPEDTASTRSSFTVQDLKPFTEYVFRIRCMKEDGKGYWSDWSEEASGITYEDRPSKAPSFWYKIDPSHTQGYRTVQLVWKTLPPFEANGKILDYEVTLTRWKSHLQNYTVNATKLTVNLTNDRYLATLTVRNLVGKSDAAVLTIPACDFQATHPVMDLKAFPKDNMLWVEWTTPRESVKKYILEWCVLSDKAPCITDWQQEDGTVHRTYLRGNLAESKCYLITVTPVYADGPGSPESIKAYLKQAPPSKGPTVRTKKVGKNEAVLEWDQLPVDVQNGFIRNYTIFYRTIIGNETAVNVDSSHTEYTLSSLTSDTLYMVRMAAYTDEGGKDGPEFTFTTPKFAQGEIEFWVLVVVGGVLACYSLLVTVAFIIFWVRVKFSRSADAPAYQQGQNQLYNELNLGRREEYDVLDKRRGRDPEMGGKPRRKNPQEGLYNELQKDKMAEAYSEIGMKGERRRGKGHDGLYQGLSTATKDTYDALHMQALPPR
In test [10] the target is AA-SR-109 (SR-109), GP130 ECD-GP130 TM-CD3z ICD.
Sequence of AA-SR-109 (SR-109), GP130 ECD-GP130 TM-CD3z ICD (chain, as listed by the source limits assumed, form in doubt): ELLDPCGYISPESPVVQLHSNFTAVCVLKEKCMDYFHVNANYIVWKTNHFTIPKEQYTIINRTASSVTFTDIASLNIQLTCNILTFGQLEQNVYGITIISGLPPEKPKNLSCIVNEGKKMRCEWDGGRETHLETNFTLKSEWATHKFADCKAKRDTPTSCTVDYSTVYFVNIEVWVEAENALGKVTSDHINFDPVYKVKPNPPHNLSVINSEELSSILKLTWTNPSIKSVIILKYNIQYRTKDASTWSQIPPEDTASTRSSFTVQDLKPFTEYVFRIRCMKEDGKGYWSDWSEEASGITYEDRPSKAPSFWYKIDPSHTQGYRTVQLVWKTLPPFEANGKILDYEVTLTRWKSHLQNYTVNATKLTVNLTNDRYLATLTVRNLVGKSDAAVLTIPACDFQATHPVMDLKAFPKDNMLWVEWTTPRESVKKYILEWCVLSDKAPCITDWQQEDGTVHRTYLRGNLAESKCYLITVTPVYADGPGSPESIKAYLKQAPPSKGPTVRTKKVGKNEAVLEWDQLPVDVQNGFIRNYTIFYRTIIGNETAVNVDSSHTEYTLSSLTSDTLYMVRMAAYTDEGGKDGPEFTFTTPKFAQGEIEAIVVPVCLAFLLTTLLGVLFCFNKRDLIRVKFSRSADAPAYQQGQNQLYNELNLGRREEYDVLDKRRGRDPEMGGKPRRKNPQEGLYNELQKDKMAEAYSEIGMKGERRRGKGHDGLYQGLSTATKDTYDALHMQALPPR

Sequence of AA-SR-122 (SR-122), IL10RB ECD-CD28 TM-CD3z ICD (chain, as listed by the source limits assumed, form in doubt): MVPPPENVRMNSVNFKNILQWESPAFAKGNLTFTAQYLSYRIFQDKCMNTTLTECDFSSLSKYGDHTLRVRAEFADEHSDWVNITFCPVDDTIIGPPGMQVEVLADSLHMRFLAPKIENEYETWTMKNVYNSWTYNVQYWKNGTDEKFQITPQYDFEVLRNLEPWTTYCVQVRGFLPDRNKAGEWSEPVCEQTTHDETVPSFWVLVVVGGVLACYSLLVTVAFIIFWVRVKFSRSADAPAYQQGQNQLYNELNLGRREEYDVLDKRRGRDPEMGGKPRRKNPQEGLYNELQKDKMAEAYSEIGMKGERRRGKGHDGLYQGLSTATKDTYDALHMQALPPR
Sequence of AA-SR-105 (SR-105), Fas ECD-Fas TM-CD3z ICD (chain, as listed by the source limits assumed, form in doubt): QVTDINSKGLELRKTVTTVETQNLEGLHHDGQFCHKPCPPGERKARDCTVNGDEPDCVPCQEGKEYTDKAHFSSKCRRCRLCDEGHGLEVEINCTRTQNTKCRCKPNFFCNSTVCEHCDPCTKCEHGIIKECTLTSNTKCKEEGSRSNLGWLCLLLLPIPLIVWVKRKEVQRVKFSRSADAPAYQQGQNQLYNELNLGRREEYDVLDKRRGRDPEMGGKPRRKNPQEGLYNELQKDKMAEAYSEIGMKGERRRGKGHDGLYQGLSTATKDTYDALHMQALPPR
Sequence of AA-SR-120 (SR-120), Fas ECD-CD28 TM-CD3z ICD (chain, as listed by the source limits assumed, form in doubt): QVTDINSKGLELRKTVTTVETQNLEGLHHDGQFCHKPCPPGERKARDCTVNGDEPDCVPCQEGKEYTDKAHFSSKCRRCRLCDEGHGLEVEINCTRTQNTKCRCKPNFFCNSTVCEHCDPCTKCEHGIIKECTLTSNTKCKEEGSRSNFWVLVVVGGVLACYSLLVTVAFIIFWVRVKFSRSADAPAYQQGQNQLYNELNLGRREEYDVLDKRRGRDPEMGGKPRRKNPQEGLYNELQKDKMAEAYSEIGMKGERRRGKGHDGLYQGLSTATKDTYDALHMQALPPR
Sequence of AA-SR-107 (SR-107), IL10RB ECD-IL10RB TM-CD3z ICD (chain, as listed by the source limits assumed, form in doubt): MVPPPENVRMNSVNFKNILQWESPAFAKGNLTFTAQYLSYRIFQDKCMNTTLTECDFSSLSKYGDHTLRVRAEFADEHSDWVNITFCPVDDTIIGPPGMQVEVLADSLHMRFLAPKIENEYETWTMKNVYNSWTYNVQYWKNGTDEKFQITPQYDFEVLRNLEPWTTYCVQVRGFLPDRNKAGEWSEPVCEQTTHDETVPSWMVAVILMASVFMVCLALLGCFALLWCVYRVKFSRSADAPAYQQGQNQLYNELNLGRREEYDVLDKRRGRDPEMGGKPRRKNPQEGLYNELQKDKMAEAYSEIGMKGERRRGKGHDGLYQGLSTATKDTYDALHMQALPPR
Sequence of FasL recombinant protein (P48023 134-281 limits assumed): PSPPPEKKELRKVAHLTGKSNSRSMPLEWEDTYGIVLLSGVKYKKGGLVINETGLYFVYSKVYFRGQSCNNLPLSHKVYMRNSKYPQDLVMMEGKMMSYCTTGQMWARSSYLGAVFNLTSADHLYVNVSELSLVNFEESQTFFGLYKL
Sequence of AA-SR-127 (SR-127), TACTILE ECD-CD28 TM-CD3z ICD (chain, as listed by the source limits assumed, form in doubt): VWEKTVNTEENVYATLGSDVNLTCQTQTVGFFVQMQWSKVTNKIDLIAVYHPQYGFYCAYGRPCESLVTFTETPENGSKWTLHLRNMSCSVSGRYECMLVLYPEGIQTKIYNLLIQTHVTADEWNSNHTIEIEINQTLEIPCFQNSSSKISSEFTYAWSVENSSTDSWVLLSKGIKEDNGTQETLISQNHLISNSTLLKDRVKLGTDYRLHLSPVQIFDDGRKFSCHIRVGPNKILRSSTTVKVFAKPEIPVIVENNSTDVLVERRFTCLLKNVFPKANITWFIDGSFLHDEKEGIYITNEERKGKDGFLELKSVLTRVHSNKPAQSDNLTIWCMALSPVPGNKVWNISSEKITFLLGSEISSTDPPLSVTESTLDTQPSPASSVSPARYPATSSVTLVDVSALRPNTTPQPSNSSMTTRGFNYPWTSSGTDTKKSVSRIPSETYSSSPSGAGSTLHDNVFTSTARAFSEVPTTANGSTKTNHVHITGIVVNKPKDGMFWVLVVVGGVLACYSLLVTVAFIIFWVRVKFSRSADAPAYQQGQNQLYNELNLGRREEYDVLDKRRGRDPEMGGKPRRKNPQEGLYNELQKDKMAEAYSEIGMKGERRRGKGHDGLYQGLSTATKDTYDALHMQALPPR
Sequence of AA-SR-111 (SR-111), PD1 ECD-PD1 TM-CD3z ICD (chain, as listed by the source limits assumed, form in doubt): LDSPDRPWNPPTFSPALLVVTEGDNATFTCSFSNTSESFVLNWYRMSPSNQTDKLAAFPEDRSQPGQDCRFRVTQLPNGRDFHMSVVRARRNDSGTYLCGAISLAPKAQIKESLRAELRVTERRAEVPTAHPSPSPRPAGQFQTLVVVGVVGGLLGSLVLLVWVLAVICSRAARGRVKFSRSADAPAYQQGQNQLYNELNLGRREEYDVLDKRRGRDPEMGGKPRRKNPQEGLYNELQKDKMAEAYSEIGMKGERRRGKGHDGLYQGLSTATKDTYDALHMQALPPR

In test [1], anti-IL-10RB mAb clone 90220 (antibody) gave a CD69, fold-change of MFI over no stimulation, High (10 ug/mL) of 108 fold; a CD69, fold-change of MFI over no stimulation, Low (0.4 ug/mL) of 32.2 fold; a CD69, fold-change of MFI over no stimulation, Med. (2 ug/mL) of 86.1 fold; a GFP, fold-change of MFI over no stimulation, High (10 ug/mL) of 13.8 fold. Besides, in test [1], the GFP, fold-change of MFI over no stimulation, Low (0.4 ug/mL) is 2.9 fold and the GFP, fold-change of MFI over no stimulation, Med. (2 ug/mL) came out at 9.3 fold. In test [2], the CD69, fold-change of MFI over no stimulation, High (10 ug/mL) stood at 115 fold; the CD69, fold-change of MFI over no stimulation, Low (0.4 ug/mL) amounted to 70.1 fold; the CD69, fold-change of MFI over no stimulation, Med. (2 ug/mL) turned out to be 118 fold; the GFP, fold-change of MFI over no stimulation, High (10 ug/mL) is 8.2 fold. Further, in test [2], the GFP, fold-change of MFI over no stimulation, Low (0.4 ug/mL) was found to be 6.2 fold and the GFP, fold-change of MFI over no stimulation, Med. (2 ug/mL) was 12.5 fold.

Turning to “FasL recombinant protein (from UniProt P48023 134-281) (ligand)”, in test [3], the CD69, fold-change of MFI over no stimulation, High (10 ug/mL) came to 162 fold; the CD69, fold-change of MFI over no stimulation, Low (0.4 ug/mL) is 40.5 fold; the CD69, fold-change of MFI over no stimulation, Med. (2 ug/mL) stood at 129 fold; the GFP, fold-change of MFI over no stimulation, High (10 ug/mL) was found to be 10.1 fold. In test [3], the GFP, fold-change of MFI over no stimulation, Low (0.4 ug/mL) worked out at 2.4 fold and the GFP, fold-change of MFI over no stimulation, Med. (2 ug/mL) was 11.2 fold. In [4], this substance showed a CD69, fold-change of MFI over no stimulation, High (10 ug/mL) of 70.2 fold; a CD69, fold-change of MFI over no stimulation, Low (0.4 ug/mL) of 8.4 fold; a CD69, fold-change of MFI over no stimulation, Med. (2 ug/mL) of 35.7 fold; a GFP, fold-change of MFI over no stimulation, High (10 ug/mL) of 7.3 fold. Besides, in [4], the GFP, fold-change of MFI over no stimulation, Low (0.4 ug/mL) was 1 fold and the GFP, fold-change of MFI over no stimulation, Med. (2 ug/mL) was 4.6 fold.

In [5], anti-CD96 mAb clone NK92.39 (antibody) registered a CD69, fold-change of MFI over no stimulation, High (10 ug/mL) of 2 fold; a CD69, fold-change of MFI over no stimulation, Low (0.4 ug/mL) of 1.1 fold; a CD69, fold-change of MFI over no stimulation, Med. (2 ug/mL) of 1.1 fold; a GFP, fold-change of MFI over no stimulation, High (10 ug/mL) of 1 fold. For the same substance, in [5], the GFP, fold-change of MFI over no stimulation, Low (0.4 ug/mL) was determined as 1 fold and the GFP, fold-change of MFI over no stimulation, Med. (2 ug/mL) is 0.8 fold. Also, in test [6], the CD69, fold-change of MFI over no stimulation, High (10 ug/mL) is 3.9 fold; the CD69, fold-change of MFI over no stimulation, Low (0.4 ug/mL) came to 3.3 fold; the CD69, fold-change of MFI over no stimulation, Med. (2 ug/mL) stood at 1 fold; the GFP, fold-change of MFI over no stimulation, High (10 ug/mL) amounted to 1.2 fold. In test [6], the GFP, fold-change of MFI over no stimulation, Low (0.4 ug/mL) was determined as 1 fold and the GFP, fold-change of MFI over no stimulation, Med. (2 ug/mL) was 0.9 fold.

anti-PD-1 mAb clone EH12.2H7 (antibody): in test [7], the CD69, fold-change of MFI over no stimulation, High (10 ug/mL) amounted to 27.3 fold; the CD69, fold-change of MFI over no stimulation, Low (0.4 ug/mL) was 1.1 fold; the CD69, fold-change of MFI over no stimulation, Med. (2 ug/mL) worked out at 1.7 fold; the GFP, fold-change of MFI over no stimulation, High (10 ug/mL) was determined as 5.5 fold. Further, in test [7], the GFP, fold-change of MFI over no stimulation, Low (0.4 ug/mL) amounted to 0.9 fold and the GFP, fold-change of MFI over no stimulation, Med. (2 ug/mL) came to 1.2 fold. In test [8], the CD69, fold-change of MFI over no stimulation, High (10 ug/mL) is 37.6 fold; the CD69, fold-change of MFI over no stimulation, Low (0.4 ug/mL) came out at 1.2 fold; the CD69, fold-change of MFI over no stimulation, Med. (2 ug/mL) turned out to be 1.9 fold; the GFP, fold-change of MFI over no stimulation, High (10 ug/mL) is 5.8 fold. In test [8], the GFP, fold-change of MFI over no stimulation, Low (0.4 ug/mL) was found to be 1.3 fold and the GFP, fold-change of MFI over no stimulation, Med. (2 ug/mL) is 1.4 fold.

For the substance anti-gp130 mAb clone 28126 (antibody), in test [9], the CD69, fold-change of MFI over no stimulation, High (10 ug/mL) amounted to 64.1 fold; the CD69, fold-change of MFI over no stimulation, Low (0.4 ug/mL) came to 1.8 fold; the CD69, fold-change of MFI over no stimulation, Med. (2 ug/mL) was 40.7 fold; the GFP, fold-change of MFI over no stimulation, High (10 ug/mL) was determined as 3 fold. Further, in test [9], the GFP, fold-change of MFI over no stimulation, Low (0.4 ug/mL) turned out to be 0.5 fold and the GFP, fold-change of MFI over no stimulation, Med. (2 ug/mL) came out at 3.9 fold. Besides, in test [10], the CD69, fold-change of MFI over no stimulation, High (10 ug/mL) turned out to be 123 fold; the CD69, fold-change of MFI over no stimulation, Low (0.4 ug/mL) was found to be 1.1 fold; the CD69, fold-change of MFI over no stimulation, Med. (2 ug/mL) was found to be 22 fold; the GFP, fold-change of MFI over no stimulation, High (10 ug/mL) was determined as 6.3 fold. In addition, in test [10], the GFP, fold-change of MFI over no stimulation, Low (0.4 ug/mL) was found to be 0.5 fold and the GFP, fold-change of MFI over no stimulation, Med. (2 ug/mL) came to 2.6 fold.

Values taken from US20260055162A1.
